Data on four molecules can be found in paper PMC546169.

Residue numbers refer to the chain shown, from its start. Like-named read-outs stand apart in the source and are kept apart here.

Holding throughout (assay): X-ray crystallography
The target of series [1] is T1, Sac7d M29F (Sulfolobus acidocaldarius, UniProt P13123 1-66, M29F).
T1 sequence: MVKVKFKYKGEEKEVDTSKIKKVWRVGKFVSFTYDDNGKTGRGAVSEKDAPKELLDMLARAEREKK

For a further series, the target named is T2, Sac7d M29A (Sulfolobus acidocaldarius, UniProt P13123 1-66, M29A).
T2 sequence: T1 sequence with F29A

In the next series the target is T3, Sac7d V26A (Sulfolobus acidocaldarius, UniProt P13123 1-66, V26A).
T3 sequence: T1 sequence with V26A, F29M

The target of the next series is T4, Sac7d V26F/M29F (Sulfolobus acidocaldarius, UniProt P13123 1-66, V26F;M29F).
T4 sequence: T1 sequence with V26F

Series [2] deals with T5, Sac7d V26A/M29A (Sulfolobus acidocaldarius, UniProt P13123 1-66, V26A;M29A).
T5 sequence: T1 sequence with V26A, F29A

Series [3] deals with T1, Sac7d M29F. The source holds these as a separate data set.
In series [4] the target is T5, Sac7d V26A/M29A. This is another data set of the same source.
Series [5] addresses T5, Sac7d V26A/M29A. The source holds these as a separate data set.

B1: GTAATTAC duplex (dsDNA)
DNA 1: GTAATTAC
DNA 2: GTAATTAC
For the molecule B1, the binding result in the series with Sac7d M29F [1], with Sac7d M29A and with Sac7d V26A was “binds” each time.

B2: GCGATCGC duplex (dsDNA)
DNA 1: GCGATCGC
DNA 2: GCGATCGC
Regarding B2, the binding result in the series with Sac7d M29A, in the series with Sac7d V26F/M29F, in the series with Sac7d V26A/M29A [2], with Sac7d V26A and with Sac7d M29F [3] was “binds” each time.

B3: GCGATiCGC duplex (dsDNA)
DNA 1: GCGAUCGC
DNA 2: GCGAUCGC
modifications: DNA with iodo derivative at position 5 (printed Ti; presumably iodo-dU)
With B3, in the series with Sac7d V26A/M29A [4], the binding result is on record as “binds”.

B4: GCGAUbrCGC duplex (dsDNA)
DNA 1: GCGAUCGC
DNA 2: GCGAUCGC
modifications: DNA with bromo-dU at position 5 of each strand
Turning to B4, the binding result with Sac7d M29F [1] and with Sac7d V26A/M29A [5] was “binds” in each case.
